Experimental data reported in IntAct's records for PubMed 25531777.

B1: Rho-related GTP-binding protein Rho6 (Homo sapiens), Q92730 (parent)
chain: MKERRAPQPVVARCKLVLVGDVQCGKTAMLQVLAKDCYPETYVPTVFENYTACLETEEQRVELSLWDTSGSPYYDNVRPLCYSDSDAVLLCFDISRPETVDSALKKWRTEILDYCPSTRVLLIGCKTDLRTDLSTLMELSHQKQAPISYEQGCAIAKQLGAEIYLEGSAFTSEKSIHSIFRTASMLCLNKPSPLPQKSPVRSLSKRLLHLPSRSELISSTFKKEKAKSCSIM

Variants of: B1
Details: with PLXNB1, O43157-1
Sequence of PLXNB1, O43157-1 (O43157 whole entry): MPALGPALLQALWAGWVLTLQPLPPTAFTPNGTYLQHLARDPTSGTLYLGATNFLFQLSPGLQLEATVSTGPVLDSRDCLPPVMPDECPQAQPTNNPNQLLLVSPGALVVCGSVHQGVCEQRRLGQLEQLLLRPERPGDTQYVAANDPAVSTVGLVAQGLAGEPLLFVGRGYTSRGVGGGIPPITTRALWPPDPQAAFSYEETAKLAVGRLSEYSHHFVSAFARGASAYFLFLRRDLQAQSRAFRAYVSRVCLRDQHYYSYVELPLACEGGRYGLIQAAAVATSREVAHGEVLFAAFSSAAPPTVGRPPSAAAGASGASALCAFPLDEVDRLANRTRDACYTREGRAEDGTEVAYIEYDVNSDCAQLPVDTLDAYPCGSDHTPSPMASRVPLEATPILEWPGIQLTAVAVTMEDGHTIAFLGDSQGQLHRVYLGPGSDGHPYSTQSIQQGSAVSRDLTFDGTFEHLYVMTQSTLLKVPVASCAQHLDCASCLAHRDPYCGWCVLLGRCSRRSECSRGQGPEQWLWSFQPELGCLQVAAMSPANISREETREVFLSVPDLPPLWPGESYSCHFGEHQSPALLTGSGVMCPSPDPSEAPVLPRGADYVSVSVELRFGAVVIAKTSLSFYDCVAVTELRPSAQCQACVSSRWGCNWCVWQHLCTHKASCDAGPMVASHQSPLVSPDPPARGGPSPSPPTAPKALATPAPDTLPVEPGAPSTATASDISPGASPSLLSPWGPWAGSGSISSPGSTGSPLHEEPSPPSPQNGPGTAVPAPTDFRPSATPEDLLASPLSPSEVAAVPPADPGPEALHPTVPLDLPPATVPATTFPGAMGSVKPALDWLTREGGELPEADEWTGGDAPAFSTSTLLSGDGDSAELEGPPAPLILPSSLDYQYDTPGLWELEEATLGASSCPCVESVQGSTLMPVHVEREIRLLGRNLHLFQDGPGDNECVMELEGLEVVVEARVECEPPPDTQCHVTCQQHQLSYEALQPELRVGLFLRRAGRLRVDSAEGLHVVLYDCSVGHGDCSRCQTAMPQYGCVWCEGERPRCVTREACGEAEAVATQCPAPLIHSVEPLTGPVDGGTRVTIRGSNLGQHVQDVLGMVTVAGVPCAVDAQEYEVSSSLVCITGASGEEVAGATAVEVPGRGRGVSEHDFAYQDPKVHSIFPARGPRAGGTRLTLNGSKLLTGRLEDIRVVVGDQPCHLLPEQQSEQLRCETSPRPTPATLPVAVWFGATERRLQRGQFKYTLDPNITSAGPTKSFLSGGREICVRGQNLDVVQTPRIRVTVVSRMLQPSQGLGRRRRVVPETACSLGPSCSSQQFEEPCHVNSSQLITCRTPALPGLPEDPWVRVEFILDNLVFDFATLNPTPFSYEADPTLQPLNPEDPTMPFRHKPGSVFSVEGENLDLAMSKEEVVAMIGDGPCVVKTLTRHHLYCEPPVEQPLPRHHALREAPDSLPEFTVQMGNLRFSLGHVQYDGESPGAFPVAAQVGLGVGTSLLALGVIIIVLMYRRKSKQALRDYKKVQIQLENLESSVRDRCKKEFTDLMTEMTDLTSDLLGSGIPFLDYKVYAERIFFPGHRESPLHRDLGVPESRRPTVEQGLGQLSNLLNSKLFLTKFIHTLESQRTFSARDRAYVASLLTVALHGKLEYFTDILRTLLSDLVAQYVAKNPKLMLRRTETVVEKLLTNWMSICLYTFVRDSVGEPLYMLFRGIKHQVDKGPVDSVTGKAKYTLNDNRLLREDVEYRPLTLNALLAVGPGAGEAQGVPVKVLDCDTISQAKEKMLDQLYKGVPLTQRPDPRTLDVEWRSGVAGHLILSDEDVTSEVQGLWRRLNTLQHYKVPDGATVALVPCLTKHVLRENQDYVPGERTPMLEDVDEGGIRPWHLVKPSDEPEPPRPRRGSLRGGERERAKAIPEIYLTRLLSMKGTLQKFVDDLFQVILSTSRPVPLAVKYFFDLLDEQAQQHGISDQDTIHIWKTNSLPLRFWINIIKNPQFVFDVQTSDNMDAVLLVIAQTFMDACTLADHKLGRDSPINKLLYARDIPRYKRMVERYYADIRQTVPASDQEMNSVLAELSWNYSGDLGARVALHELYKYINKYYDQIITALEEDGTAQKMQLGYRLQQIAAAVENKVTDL

Variant	effect of a mutation on the interaction
MKERRAPQPVVARCKLVLVGDVQCGKTAMLQVLAKDCYPETYVPTVFENYTACLETEEQRVELSLWDTSRSPYYDNVRPLCYSDSDAVLLCFDISRPETVDSALKKWRTEILDYCPSTRVLLIGCKTDLRTDLSTLMELSHQKQAPISYEQGCAIAKQLGAEIYLEGSAFTSEKSIHSIFRTASMLCLNKPSPLPQKSPVRSLSKRLLHLPSRSELISSTFKKEKAKSCSIM [G70R]	disrupting interaction strength
MKERRAPQPVVARCKLVLVGDVQCGKTAMLQVLAKDCYPETYVPTVFENYTACLETEEQRVELSLWDTSGSPYYDNVRPLCYSDSDAVLLCFDISRPETVDSALKKWRTEILDYCPSTRVLLIGCKTDLRTDLSTLMELSHQKQAPISYEQGCAIAKQLGAEIYLEGSAFTSEKSIHSICRTASMLCLNKPSPLPQKSPVRSLSKRLLHLPSRSELISSTFKKEKAKSCSIM [F180C]	disrupting interaction strength
MKERRAPQPVVARCKLVLVGDVQCGKTAMLQVLAKDCYPETYVPTVFENYTACLETEEQRVELSLWDTSGSPYYDNVRPLCYSDSDAVLLCFDISRPDTVDSALKKWRTEILDYCPSTRVLLIGCKTDLRTDLSTLMELSHQKQAPISYEQGCAIAKQLGAEIYLEGSAFTSEKSIHSIFRTASMLCLNKPSPLPQKSPVRSLSKRLLHLPSRSELISSTFKKEKAKSCSIM [E98D]	disrupting interaction strength

Variants of: B1
Details: with PLXNB1, O43157-1
Remark: another data set of the same source

Variant	effect of a mutation on the interaction
MKERRAPQPVVARCKLVLVGDVQCGKTAMLQVLAKDCYPETYVPAVFENYTACLETEEQRVELSLWDTSGSPYYDNVRPLCYSDSDAVLLCFDISRPETVDSALKKWRTEILDYCPSTRVLLIGCKTDLRTDLSTLMELSHQKQAPISYEQGCAIAKQLGAEIYLEGSAFTSEKSIHSIFRTASMLCLNKPSPLPQKSPVRSLSKRLLHLPSRSELISSTFKKEKAKSCSIM [T45A]	disrupting interaction strength
MKERRAPQPVVARCKLVLVGDVQCGKTAMLQVLAKDCYPETYVPTVFANYTACLETEEQRVELSLWDTSGSPYYDNVRPLCYSDSDAVLLCFDISRPETVDSALKKWRTEILDYCPSTRVLLIGCKTDLRTDLSTLMELSHQKQAPISYEQGCAIAKQLGAEIYLEGSAFTSEKSIHSIFRTASMLCLNKPSPLPQKSPVRSLSKRLLHLPSRSELISSTFKKEKAKSCSIM [E48A]	disrupting interaction strength
